The text below walks through data of article PMC10908796, “RTF2 controls replication repriming and ribonucleotide excision at the replisome” (Nature Communications, 2024).

Assay [1] concerns the target T1, recombinant RNase H2 complex (hRNASEH2BCA) (human, UniProt Q5TBB1 1-312; Q8TDP1 1-164; O75792 1-299).
T1 construct: RNASEH2B, human, non-catalytic accessory subunit of RNase H2; RNASEH2C, human, non-catalytic accessory subunit of RNase H2; RNASEH2A, human, catalytic subunit of RNase H2; Heterotrimer formed beforehand by co-expression; also called RH2; source: E. coli, purified (GST pulldown, then AKTA FPLC); copies: + +
T1 sequence (looked up) 1: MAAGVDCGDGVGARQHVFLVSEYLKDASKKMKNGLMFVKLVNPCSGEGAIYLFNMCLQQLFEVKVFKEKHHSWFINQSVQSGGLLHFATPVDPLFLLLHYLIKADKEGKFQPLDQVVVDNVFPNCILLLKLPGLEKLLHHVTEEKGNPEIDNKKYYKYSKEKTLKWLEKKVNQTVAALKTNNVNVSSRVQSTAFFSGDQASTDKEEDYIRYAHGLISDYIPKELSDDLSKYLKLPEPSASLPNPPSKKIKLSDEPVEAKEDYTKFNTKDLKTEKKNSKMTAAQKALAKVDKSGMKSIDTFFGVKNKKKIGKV
T1 sequence (looked up) 2: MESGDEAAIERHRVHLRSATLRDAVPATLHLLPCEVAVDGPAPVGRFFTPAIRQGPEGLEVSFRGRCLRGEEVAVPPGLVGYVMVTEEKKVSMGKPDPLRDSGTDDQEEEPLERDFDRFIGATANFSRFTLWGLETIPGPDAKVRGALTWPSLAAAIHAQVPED
T1 sequence (looked up) 3: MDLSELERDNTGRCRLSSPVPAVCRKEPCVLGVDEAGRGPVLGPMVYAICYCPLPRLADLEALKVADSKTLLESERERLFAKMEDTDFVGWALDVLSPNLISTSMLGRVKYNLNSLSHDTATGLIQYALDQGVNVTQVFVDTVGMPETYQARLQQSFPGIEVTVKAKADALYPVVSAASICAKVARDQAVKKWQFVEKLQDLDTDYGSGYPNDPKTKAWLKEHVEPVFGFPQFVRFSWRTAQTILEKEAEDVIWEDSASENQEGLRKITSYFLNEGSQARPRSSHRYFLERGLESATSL
In words: co-IP; recombinant RNase H2 complex and RTF2 (0.5, 1, 2, 4 pmol) from E. coli mixed 2 hr at 4 °C in 20 mM HEPES pH 7.5, 1 mM DTT, 0.01% NP-40, 5% glycerol, 0.1 mg/mL BSA, 50 mM NaCl, benzonase; NaCl raised to 150 mM; Dynabeads 1 hr at 4 °C; immunoblot. As to conditions: both partners purified.

Assay [2] has as its target T1, recombinant RNase H2 complex …. In words: co-IP; recombinant GFP-tagged RTF2 (0.5, 1, 2, 4 pmol) and RNase H2 complex from E. coli, immunoprecipitation as for untagged RTF2 (20 mM HEPES pH 7.5, 150 mM NaCl final, benzonase, Dynabeads); immunoblot. As to conditions: both partners purified. (In general: In western blotting, separated proteins are transferred to a membrane and probed.)

B1: recombinant hRTF2 (natural protein, human, UniProt Q9BY42 1-306, looked up)
chain: MGCDGGTIPKRHELVKGPKKVEKVDKDAELVAQWNYCTLSQEILRRPIVACELGRLYNKDAVIEFLLDKSAEKALGKAASHIKSIKNVTELKLSDNPAWEGDKGNTKGDKHDDLQRARFICPVVGLEMNGRHRFCFLRCCGCVFSERALKEIKAEVCHTCGAAFQEDDVIMLNGTKEDVDVLKTRMEERRLRAKLEKKTKKPKAAESVSKPDVSEEAPGPSKVKTGKPEEASLDSREKKTNLAPKSTAMNESSSGKAGKPPCGATKRSIADSEESEAYKSLFTTHSSAKRSKEESAHWVTHTSYCF
notes: Replication Termination Factor 2 (RTF2), human (hRTF2); source: E. coli, purified (IMAC, then AKTA FPLC)
With B1, the binding result in assay [1] is recorded as “binds”.

B2: recombinant GFP-tagged RTF2 (natural protein, human, UniProt Q9BY42 1-306, looked up)
chain: MGCDGGTIPKRHELVKGPKKVEKVDKDAELVAQWNYCTLSQEILRRPIVACELGRLYNKDAVIEFLLDKSAEKALGKAASHIKSIKNVTELKLSDNPAWEGDKGNTKGDKHDDLQRARFICPVVGLEMNGRHRFCFLRCCGCVFSERALKEIKAEVCHTCGAAFQEDDVIMLNGTKEDVDVLKTRMEERRLRAKLEKKTKKPKAAESVSKPDVSEEAPGPSKVKTGKPEEASLDSREKKTNLAPKSTAMNESSSGKAGKPPCGATKRSIADSEESEAYKSLFTTHSSAKRSKEESAHWVTHTSYCF
notes: Replication Termination Factor 2 (RTF2), human (hRTF2 in the methods on recombinant proteins); also called GFP-RTF2; source: E. coli, purified
As for B2, the binding result in assay [2] is “binds”.
